Here are results for 2 substances from paper PMC5494207.

Test [1] concerns the target FliG 117C/166C protein (E. coli) (UniProt P0ABZ1). Briefly: cross-linking.
Test [2] has as its target FliG 158C/214C mutant (E. coli) (UniProt P0ABZ1). Kind of test: cross-linking.

Consider “FliG 117C/166C protein (from UniProt P0ABZ1 1-331) (natural protein)”, for which the stoichiometry N (in general, the number of molecules, sites or subunits per partner or assembly) in test [1] came out at 8 subunits.

“FliG 158C/214C mutant (from UniProt P0ABZ1 1-331) (natural protein)” came in with a stoichiometry N in test [2] above 9 subunits.
